Patent US20250299771A1

Columns and labels:
[1] = target: HLA-C*07:02/A*02:01 chimera of Example 2 (heavy chain with human β2m) (human)
[2] = target: HLA-C*07:02-A*02:01 chimera of Example 4 (heavy chain with human β2m) (human)

RYRPGTVAL (modifications not checked) [RYR peptide (…)]
Tm [1]: 48.3 °C
Tm [2]: 49.8 °C
